Measured values reported in patent publication US20260242504A1 (CHIOME BIOSCIENCE, published 2026).

What was measured:
[1] = molecular target: T1, recombinant human PD-L1/Fc (human, UniProt Q9NZQ7 19-239, biotinylated in the competitive ELISA (sites not given)); assay: ELISA, immobilized recombinant human PD-L1/Fc, 0-500 nM (N=2)
T1 construct: Bought from R&D Systems; also called recombinant PD-L1 protein; biotinylated PD-L1 ligand; not shown: Fc part of the bought fusion
Procedure: The binding affinity of purified 53L10-M13 to recombinant PD-L1 protein was examined by ELISA (FIG. 16). A recombinant human PD-L1/Fc protein (R&D Biosystems) was immobilized in a 96-well plate using the same method as that performed in Example 4. According to the procedure described in “Materials and Methods” later, the binding assay of 53L10-M13 and 53L10 to human PD-L1 protein was performed at increasing concentrations (0-500 nM). […] The curve showing the binding affinity of 53L10-M13 to PD-L1 overlapped with the curve showing the binding affinity of 53L10 (●) to PD-L1.

[2] = molecular target: T2, recombinant human 5T4 protein (5T4/His) (human, UniProt Q13641 32-355); assay: ELISA, immobilized recombinant human 5T4, 0-500 nM (N=2)
T2 construct: also called Human 5T4/His; recombinant 5T4; not shown: His tag of the bought protein
T2 sequence: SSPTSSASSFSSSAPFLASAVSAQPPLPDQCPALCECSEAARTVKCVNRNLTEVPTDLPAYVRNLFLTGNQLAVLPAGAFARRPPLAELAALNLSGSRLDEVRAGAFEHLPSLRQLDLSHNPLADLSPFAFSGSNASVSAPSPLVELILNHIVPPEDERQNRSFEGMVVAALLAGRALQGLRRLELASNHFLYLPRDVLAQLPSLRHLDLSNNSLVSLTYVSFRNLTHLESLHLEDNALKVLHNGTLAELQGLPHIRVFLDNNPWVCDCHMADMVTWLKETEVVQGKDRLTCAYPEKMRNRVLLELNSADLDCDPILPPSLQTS
Procedure: The binding affinity of purified 53L10-M13 to 5T4 antigen was examined by ELISA (FIG. 14). A recombinant human 5T4 protein (ACRO Biosystems) was immobilized in a 96-well plate using the same method as that performed in FIG. 2 (Example 1). […] The curve showing the binding affinity of 53L10-M13 to 5T4 overlapped with the curve showing the binding affinity of 53L10 (●) to 5T4. The EC₅₀ values were 0.58 nM for 53L10-M13 and 0.53 nM for 53L10 (FIG. 14B).

[3] = molecular target: T3, 5T4 on 5T4-expressing CHO-K1 cells (UniProt Q13641 32-420); assay: cell-based or functional assay
T3 sequence (looked up): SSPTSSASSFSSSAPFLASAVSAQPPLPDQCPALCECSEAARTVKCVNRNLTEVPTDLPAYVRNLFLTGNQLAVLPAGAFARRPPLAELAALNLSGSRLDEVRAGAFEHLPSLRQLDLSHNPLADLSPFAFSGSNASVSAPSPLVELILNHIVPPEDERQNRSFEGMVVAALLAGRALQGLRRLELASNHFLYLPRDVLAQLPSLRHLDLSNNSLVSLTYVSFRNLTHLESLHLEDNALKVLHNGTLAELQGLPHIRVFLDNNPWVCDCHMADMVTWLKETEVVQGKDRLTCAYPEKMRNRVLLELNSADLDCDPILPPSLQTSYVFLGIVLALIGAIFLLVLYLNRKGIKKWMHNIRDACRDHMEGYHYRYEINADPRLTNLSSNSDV

[4] = molecular target: T2, recombinant human 5T4 protein (5T4/His); assay: ELISA, immobilized recombinant human 5T4, tribody 0-500 nM
Procedure: A recombinant human 5T4 protein (AMSBio) was immobilized onto 96-well ELISA plates. The binding assay of Tb535H and purified novel tribodies was performed by testing at increasing concentrations (0-500 nM) were carried out according to the procedure described in Materials and Methods. […] The Tb535H has two 5T4 binding arms derived from Fab and scFv, and the novel 53X tribody constructed has a monovalent 5T4 binding arm derived from a single Fab.

[5] = molecular target: T4, recombinant human PD-1/Fc (human, UniProt Q15116 25-167); assay: ELISA, immobilized recombinant human PD-1 (per the legend of FIG. 4B; the sentence prints PD-L1)
T4 construct: Bought from R&D Systems; also called recombinant PD-1 protein; immobilized PD-1 receptor; not shown: Fc part of the bought fusion
T4 sequence (Q15116 25-167 limits assumed): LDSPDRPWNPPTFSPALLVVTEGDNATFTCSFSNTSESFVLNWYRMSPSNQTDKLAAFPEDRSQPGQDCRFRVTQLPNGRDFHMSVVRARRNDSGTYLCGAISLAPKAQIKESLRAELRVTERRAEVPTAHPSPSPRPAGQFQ
Excerpt: To verify whether the novel tribodies including a binding arm to PD-L1 or PD-1 have a satisfactory binding affinity for their target recombinant proteins, we perfomed ELISA assays on immobilized PD-1 or PD-L1 proteins (FIG. 4).

T1 sequence (Q9NZQ7 19-239 limits assumed): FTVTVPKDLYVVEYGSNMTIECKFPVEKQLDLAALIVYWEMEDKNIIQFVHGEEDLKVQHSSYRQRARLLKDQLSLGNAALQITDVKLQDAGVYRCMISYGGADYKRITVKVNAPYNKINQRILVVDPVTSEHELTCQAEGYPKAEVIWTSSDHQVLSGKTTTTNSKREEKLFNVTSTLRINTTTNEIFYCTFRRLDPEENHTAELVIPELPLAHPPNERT

Binder	EC50 [1] [nM]	EC50 [2] [nM]	EC50 of luciferase activity, T cell activation bioassay (NFAT) with CHO-5T4 target cells [3] [nM]	binding result [4]	binding result [5]
53L10-M13 (other, also called 53L10 mutant; 53L0-M13) chain 1: QVQLVQSGAEVKKPGASVKVSCKASGYSFTSYYMHWVKQSPGQGLEWIGRINPNNGVTLYNQKFKDRVTMTRDTSISTAYMELSRLRSDDTAVYYCARSTMITNYVMDYWGQGTLVTVSSASTKGPSVFPLAPSSKSTSGGTAALGCLVKDYFPEPVTVSWNSGALTSGVHTFPAVLQSSGLYSLSSVVTVPSSSLGTQTYICNVNHKPSNTKVDKKVEPKSCDKTHTGPGGGSPGQVQLVQSGAELKKPGASVKVSCKASGYTFTRYTMHWVRQAPGQCLEWMGYINPSRGYTNYNQKFKDKATLTADKSTSTAYMELRSLRSDDTAVYYCARYYDDHYSLDYWGQGTLVTVSSASGGGGSGGGGSGGGGSAGDIQLTQSPSILSASVGDRVTITCRASSSVSYMNWYQQKPGKAPKRWIYDTSKVASGVPYRFSGSGSGTEYTLTISSMQPEDFATYYCQQWSSNPLTFGCGTKVEIKSG chain 2: not shown	36.9	0.58	0.016		
53P tribody (other, also called 5T4xCD3xisotype control) chain 1: QVQLVQSGAEVKKPGASVKVSCKASGYSFTSYYMHWVKQSPGQGLEWIGRINPNNGVTLYNQKFKDRVTMTRDTSISTAYMELSRLRSDDTAVYYCARSTMITNYVMDYWGQGTLVTVSSASTKGPSVFPLAPSSKSTSGGTAALGCLVKDYFPEPVTVSWNSGALTSGVHTFPAVLQSSGLYSLSSVVTVPSSSLGTQTYICNVNHKPSNTKVDKKVEPKSCDKTHTGPGGGSPGQVQLVQSGAELKKPGASVKVSCKASGYTFTRYTMHWVRQAPGQCLEWMGYINPSRGYTNYNQKFKDKATLTADKSTSTAYMELRSLRSDDTAVYYCARYYDDHYSLDYWGQGTLVTVSSASGGGGSGGGGSGGGGSAGDIQLTQSPSILSASVGDRVTITCRASSSVSYMNWYQQKPGKAPKRWIYDTSKVASGVPYRFSGSGSGTEYTLTISSMQPEDFATYYCQQWSSNPLTFGCGTKVEIKSG chain 2: not shown				binds	
53D tribody (other, Trispecific tribody, a heterodimer; H chain derivative: VH(5T4)-CH1-scFv(hOKT3); L chain derivative: VL(5T4)-CL-scFv(PD-1.1); also called 5T4xCD3xPD-1) chain 1: QVQLVQSGAEVKKPGASVKVSCKASGYSFTSYYMHWVKQSPGQGLEWIGRINPNNGVTLYNQKFKDRVTMTRDTSISTAYMELSRLRSDDTAVYYCARSTMITNYVMDYWGQGTLVTVSSASTKGPSVFPLAPSSKSTSGGTAALGCLVKDYFPEPVTVSWNSGALTSGVHTFPAVLQSSGLYSLSSVVTVPSSSLGTQTYICNVNHKPSNTKVDKKVEPKSCDKTHTGPGGGSPGQVQLVQSGAELKKPGASVKVSCKASGYTFTRYTMHWVRQAPGQCLEWMGYINPSRGYTNYNQKFKDKATLTADKSTSTAYMELRSLRSDDTAVYYCARYYDDHYSLDYWGQGTLVTVSSASGGGGSGGGGSGGGGSAGDIQLTQSPSILSASVGDRVTITCRASSSVSYMNWYQQKPGKAPKRWIYDTSKVASGVPYRFSGSGSGTEYTLTISSMQPEDFATYYCQQWSSNPLTFGCGTKVEIKSG chain 2: not shown				binds	binds
53G tribody (other, Trispecific tribody, a heterodimer; L chain derivative: VL(5T4)-CL-scFv(LAG3.1); also called 5T4xCD3xLAG3) chain 1: QVQLVQSGAEVKKPGASVKVSCKASGYSFTSYYMHWVKQSPGQGLEWIGRINPNNGVTLYNQKFKDRVTMTRDTSISTAYMELSRLRSDDTAVYYCARSTMITNYVMDYWGQGTLVTVSSASTKGPSVFPLAPSSKSTSGGTAALGCLVKDYFPEPVTVSWNSGALTSGVHTFPAVLQSSGLYSLSSVVTVPSSSLGTQTYICNVNHKPSNTKVDKKVEPKSCDKTHTGPGGGSPGQVQLVQSGAELKKPGASVKVSCKASGYTFTRYTMHWVRQAPGQCLEWMGYINPSRGYTNYNQKFKDKATLTADKSTSTAYMELRSLRSDDTAVYYCARYYDDHYSLDYWGQGTLVTVSSASGGGGSGGGGSGGGGSAGDIQLTQSPSILSASVGDRVTITCRASSSVSYMNWYQQKPGKAPKRWIYDTSKVASGVPYRFSGSGSGTEYTLTISSMQPEDFATYYCQQWSSNPLTFGCGTKVEIKSG chain 2: not shown				binds	
